One substance from PMC5932227 can be followed below.

The pKd is the Kd on a negative log10 scale, so that one unit is a factor of ten. The low end stands for a large Kd, the high end for a small Kd.

pKd: −log10 of the molar value.

This experiment addresses cynomolgus OX40, native, on activated cynomolgus CD4 T cells (cynomolgus (endogenous in primary CD4 T cells)). The experiment is described as follows: flow cytometry on cells. In general terms: A flow cytometer gives signals particle by particle.

Substance “MEDI6383, human OX40 ligand IgG4P Fc fusion protein” showed a pKd of 10.62.
